Data: US11976099B2, “Compositions and methods for treatment of bone associated diseases” (THE NATIONAL INSTITUTE FOR BIOTECHNOLOGY IN THE NEGEV LTD., priority 2016, dated 2024)
Several values for one entry are separate records, joined by “and”; a condition that tells them apart may be missing. Equal values may be shown once.

Experiments:
[1] = target: αvβ5 integrin (Homo sapiens, UniProt P06756+P18084, DEL720-799); assay: SPR integrin specificity, immobilized αvβ5; assay type: binding; settings: variants at 1 μM
Method: Determination of binding of the soluble purified proteins (M-CSFM and M-CSFRGD variants) to c-FMS and αvβ3 integrin was performed on a ProteOn XPR36 (Bio-Rad, USA). […] Unbound esters were deactivated with 1 M ethanolamine HCl at pH 8.5, and the temperature was set at 25° C. Then, the chip was rotated, and the human c-FMS soluble proteins (Sino Biological, China) were allowed to flow over the chip at 6 different concentrations (0, 12.5, 25, 50, 100 and 200 nM) at a flow rate of 50 μl/min for 490 s, followed by dissociation for 600 s in PBS+0.005% Tween (PBST). For determining αvβ3 integrin binding, the chip was regenerated using 50 mM NaOH at a flow rate of 100 μl/min and analyzed again for c-FMS binding to make sure that the chip had been regenerated. After making sure the chip is regenerated, and different concentrations of […] proteins (0, 12.5, 25, 50, 100 and 200 nM) were allowed to flow over the chip. The interactions obtained were normalized to the initial protein binding RUs to the chip surface. Then, for each concentration, the KD was obtained from the equilibrium binding phase of the sensorgram. To determine the αvβ3 integrin specificity for each M-CSFRGD variant, a new chip was loaded with different RGD binding integrins, as follows: 8.5 μg of α3β1, 8.5 μg of α4β7, 6 μg of α5β1, 8.5 μg of αvβ5, and 8.5 μg of αvβ3 integrin and 3 μg of BSA as a negative control. […]

[2] = test system: CTX-I (carboxy-terminal collagen crosslinks); assay: CTX-I serum ELISA in ovariectomized mice (bone resorption); assay type: in vivo, C57 Rcc mice; design: CTX-I serum-concentration: unit not given here; settings: for CTX-I serum-concentration: 4 days, individual animals, listed as M-CSF 5.6
Method: In order to assess the effect of M-CSF variant on bone resorption, 10 weeks old C57 Rcc mice were ovariectomized resulting in a decrease in estrogen secretion similar to what occurs in osteoporosis. Two weeks post-surgery the mice were treated with M-CSF5.6 variant in three concentrations-0.1 mg/kg, 0.5 mg/kg and 15 mg/kg, in order to test the effect on bone resorption and to find the optimal dosage. For a period of 4 days, 0.1 and 0.5 mg/kg M-CSF5.6 treated mice received subcutaneous injections twice a day, while 15 mg/kg M-CSF5.6 treated mice received a daily subcutaneous injection. Mice were sacrificed 18-24 hours after the final injection. The amounts of type I collagen fragments in the blood were measured using CTX-I (carboxy-terminal collagen crosslinks) ELISA.
Animals were randomly divided into 2 control groups (SHAM, PBS) and 4 treatment groups (0.1, 0.5 and 15 mg/kg M-CSF5.6 and 0.1 mg/kg Alendronate as positive control). Except for the SHAM group, all animals were ovariectomized. *, ^, + represent a Haemolytic-serum sample, an unsuccessful ovariectomy procedure (as determined post mortem) and an outlier, respectively. CTX-I serum-concentration values of mice with unsuccessful ovariectomy were excluded from the analysis.

Sequence of αvβ5 integrin (P06756 31-992 limits assumed, stated change not applied): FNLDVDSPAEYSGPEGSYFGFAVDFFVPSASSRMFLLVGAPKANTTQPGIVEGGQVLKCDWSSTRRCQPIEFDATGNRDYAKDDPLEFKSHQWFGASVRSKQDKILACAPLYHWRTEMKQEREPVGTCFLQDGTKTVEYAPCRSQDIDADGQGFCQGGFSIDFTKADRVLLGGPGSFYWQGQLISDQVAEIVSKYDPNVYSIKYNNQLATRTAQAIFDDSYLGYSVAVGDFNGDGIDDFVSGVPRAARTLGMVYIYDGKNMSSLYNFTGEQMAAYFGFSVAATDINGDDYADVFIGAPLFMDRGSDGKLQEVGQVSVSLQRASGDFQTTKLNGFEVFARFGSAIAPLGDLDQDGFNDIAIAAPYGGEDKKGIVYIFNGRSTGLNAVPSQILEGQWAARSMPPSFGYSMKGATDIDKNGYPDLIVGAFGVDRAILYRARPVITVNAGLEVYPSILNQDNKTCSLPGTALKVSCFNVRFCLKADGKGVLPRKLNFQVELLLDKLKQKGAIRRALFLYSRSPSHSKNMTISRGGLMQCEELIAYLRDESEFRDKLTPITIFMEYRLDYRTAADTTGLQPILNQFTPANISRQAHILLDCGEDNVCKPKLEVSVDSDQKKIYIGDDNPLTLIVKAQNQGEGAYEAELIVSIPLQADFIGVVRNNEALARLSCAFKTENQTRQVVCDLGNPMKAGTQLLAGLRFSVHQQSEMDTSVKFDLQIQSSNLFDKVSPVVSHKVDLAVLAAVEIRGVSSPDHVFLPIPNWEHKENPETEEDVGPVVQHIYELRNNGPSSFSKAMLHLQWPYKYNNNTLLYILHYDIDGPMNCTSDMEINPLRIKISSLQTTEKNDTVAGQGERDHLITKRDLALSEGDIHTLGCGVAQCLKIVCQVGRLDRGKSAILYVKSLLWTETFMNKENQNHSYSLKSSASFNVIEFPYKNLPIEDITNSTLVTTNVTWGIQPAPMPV
Sequence of αvβ5 integrin (P18084 24-719 limits assumed, stated change not applied): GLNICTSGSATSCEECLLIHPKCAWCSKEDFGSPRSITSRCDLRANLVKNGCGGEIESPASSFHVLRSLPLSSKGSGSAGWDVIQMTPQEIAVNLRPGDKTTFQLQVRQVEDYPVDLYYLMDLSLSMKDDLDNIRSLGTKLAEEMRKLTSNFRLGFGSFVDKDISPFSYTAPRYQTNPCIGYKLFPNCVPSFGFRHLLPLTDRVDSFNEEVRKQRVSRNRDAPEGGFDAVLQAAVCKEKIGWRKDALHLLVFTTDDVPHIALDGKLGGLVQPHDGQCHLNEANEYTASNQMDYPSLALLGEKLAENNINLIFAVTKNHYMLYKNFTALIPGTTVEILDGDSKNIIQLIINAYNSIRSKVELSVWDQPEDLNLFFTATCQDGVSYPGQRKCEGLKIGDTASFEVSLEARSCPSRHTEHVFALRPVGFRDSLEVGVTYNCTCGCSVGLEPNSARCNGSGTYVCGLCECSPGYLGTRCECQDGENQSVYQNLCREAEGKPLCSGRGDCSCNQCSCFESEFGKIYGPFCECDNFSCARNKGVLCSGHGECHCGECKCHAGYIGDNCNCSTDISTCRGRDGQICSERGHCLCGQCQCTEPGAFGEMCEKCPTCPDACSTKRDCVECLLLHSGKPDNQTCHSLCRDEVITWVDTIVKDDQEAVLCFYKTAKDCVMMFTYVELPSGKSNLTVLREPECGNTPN

B1: 5.6: bispecific M-CSFRGD variant from sort five; M-CSFM loop replaced by XXXRGDXXX motif; binds c-FMS and αvβ3 integrin (protein)
chain: EEVSEYCSHMIGSGHLQSLQRLIDTYPRGDMCSITFEFVDQEQLKDPVCYLKKAFLLVQDIMEDTMRFRDNTPNAIAIVQLQELSLRLKSCFTKDYEEHDKACVRTFYETPLQLLEKVKNVFNETKNLLDKDWNIFSKNCNNSFAECSSQGHERQSEGS
modifications: left off: small tags and cut ends
rank order of αvβ5 integrin binding [1]: 4.24 is the best αvβ5 integrin followed by 4.22 and 5.6 | CTX-I serum-concentration ([2]; 0.1 mg/kg s.c. twice a day, * haemolytic): 58.19 and 44.06 and 130.4* and 195.2* and 53.32 and 46.69 | CTX-I serum-concentration ([2]; 0.5 mg/kg s.c. twice a day, * haemolytic, ^ unsuccessful ovariectomy, + outlier): 53.33 and 209.7+ and 47.65*^ and 64.67 and 70.37* and 83.09* | decrease in CTX-I levels compared to the PBS treated animals ([2]; 15 mg/kg): ~2 fold | CTX-I serum-concentration ([2]; 15 mg/kg s.c. daily, ^ unsuccessful ovariectomy, + outlier): 33.94 and 33.49 and 214.7^+ and 46.82 and 30.85 and 40.68 | effect on CTX-I levels at lower doses ([2]; 0.1 and 0.5 mg/kg, hemolytic samples included): ineffective
